Article PMC6149855, “Improving the Catalytic Property of the Glycoside Hydrolase LXYL-P1–2 by Directed Evolution” (Molecules : A Journal of Synthetic Chemistry and Natural …, 2017)

Tested on: [H][C@]12[C@H](OC(=O)c3ccccc3)[C@]3(O)C[C@H](OC(=O)[C@H](O)[C@@H](NC(=O)c4ccccc4)c4ccccc4)C(C)=C([C@@H](O)C(=O)[C@]1(C)[C@@H](O[C@@H]1OC[C@@H](O)[C@H](O)[C@H]1O)C[C@@]1([H])OC[C@@]21OC(C)=O)C3(C)C
Test: HPLC of 10-deacetyltaxol formation, nonlinear Michaelis–Menten fit
Type: biochemical, Lentinula edodes
Details: XDT 0.039–5.0 mM; other conditions as described previously
From the text: HPLC of 10-deacetyltaxol formation, nonlinear Michaelis–Menten fit on LXYL-P1–2

| Substance | Km | Vmax [µM/min] | kcat [s⁻¹] | kcat/Km [M⁻¹ s⁻¹] |
| --- | --- | --- | --- | --- |
| LXYL-P1–2 (Lentinula edodes; S91D) | 0.17 (±0.01) mmol L^−1 | 3.15 | 1.89 ± 0.04 | 11300 ± 390 |
| LXYL-P1–2 (Lentinula edodes; T368E) | 0.16 (±0.01) mmol L^−1 | 3.84 | 2.3 ± 0.03 | 14200 ± 810 |
| LXYL-P1–2 (Lentinula edodes) | 0.51 (±0.01) mmol L^−1 | 8.16 | 4.89 ± 0.1 | 9670 ± 100 |
